# Assay results: the RNAGym collection of RNA variant scans (doi:10.7554/elife.80360)
# B1: Hairpin Ribozyme (parent)
# chain: GUCCUCUUUCACGUGCGCGUGAAAGAGAGAAGUGAACCAGAGAAACACACGUUGUGGUAUAUUACCUGGUA
# Variants of: B1
# Assay: self-cleavage, relative activity (ratio to wild type); higher = more cleavage; co-transcriptional
row,Variant,self-cleavage
1,G32C C66G,0.114
2,U33A G40A,0.108
3,U33A G40U,0.126
4,A31G A45G,0.0922
5,A30U U63G,0.0835
6,G32U G34C,0.18
7,A30U C38A,0.0692
8,A30U C38U,0.232
9,A30U C38G,0.108
10,G32C G69C,0.115
11,G32C U58A,0.116
12,A30U G40A,0.0894
13,G32A G54A,0.156
14,G32A G54U,0.136
15,G32U A44U,0.243
16,G32U A44C,0.112
17,G32U U52C,0.144
18,G32U G69U,0.0924
19,A31C G32A,0.173
20,A31C G32U,0.348
21,A31C A61G,0.0877
22,G32C A61U,0.0498
23,G32C A39U,0.174
24,A31U G42A,0.0839

row,Variant,self-cleavage
1,A31U C65G,0.166
2,A31U C65U,0.121
3,A31U U55C,0.0975
4,G32C C37U,0.131
5,G32C A45U,0.121
6,A31G U55C,0.28
7,G32C A44G,0.137
8,A31C C48U,0.159
9,A31U U33G,0.143
10,A31U U33C,0.0766
11,A30U A71G,0.286
12,G32A A36U,0.111
13,G32A A36C,0.145
14,G32A A36G,0.0788
15,G32A A43U,0.0753
16,U33A G54C,0.128
17,G32U G51A,0.179
18,G32U G51U,0.119
19,U33A A64C,0.143
20,U33A A64U,0.21
21,A31G U58G,0.404
22,A31G U58C,0.793
23,A31G U58A,0.323
24,A30U C46U,0.0965

row,Variant,self-cleavage
1,A30U A49U,0.274
2,A30U A49G,0.2
3,G32A A59G,0.189
4,G32A A59C,0.133
5,A31U A36U,0.121
6,G32C A49C,0.0996
7,A30U U53A,0.138
8,A30U U53G,0.277
9,G32C U62A,0.234
10,G32C U62G,0.0745
11,A31C G69C,0.0986
12,A31C A43U,0.0953
13,A30U C37U,0.206
14,A31C U52G,0.0727
15,U33A U53G,0.0866
16,U33A U53A,0.103
17,U33A U53C,0.264
18,A30U G42U,0.119
19,A30U G42C,0.114
20,G32A G42C,0.124
21,G32A G42A,0.0757
22,U33A U62A,0.148
23,A31U U58G,0.18
24,A31C U60G,0.194

row,Variant,self-cleavage
1,G32U G42A,0.153
2,G32C A43G,0.0421
3,G32C A43C,0.23
4,G32C A43U,0.127
5,A31U C48U,0.109
6,A31U C48G,0.0916
7,G32U G56A,0.117
8,G32A C37A,0.115
9,G32A C37U,0.129
10,A30U U52C,0.135
11,A30U U52G,0.0874
12,A30U U70G,0.117
13,A30G U67A,0.215
14,A31C U70C,0.0987
15,A31G U60G,0.412
16,A31G U60A,0.677
17,U33A C37G,0.182
18,U33A C37U,0.109
19,G32U U67G,0.121
20,G32U U67A,0.171
21,A31C C37A,0.0507
22,A31C C37U,0.134
23,U33A A35G,0.17
24,U33A A35U,0.131

row,Variant,self-cleavage
1,A31U G69C,0.111
2,G32U U33A,0.148
3,G32U U33C,0.222
4,A31G A43U,0.11
5,A31U G34A,0.0803
6,G32C U55G,0.0931
7,G32C U55A,0.176
8,A31G U67A,0.0798
9,A31U A61G,0.159
10,A31C C50A,0.139
11,A31C G56A,0.148
12,G32A U63C,0.0959
13,G32A C50G,0.179
14,G32A C50A,0.168
15,G32U A41G,0.0256
16,A31G G51A,0.927
17,G32C G40A,0.164
18,A31G A61G,0.118
19,G32A G69U,0.161
20,A31U A41G,0.0486
21,A30U A43U,0.0952
22,A30U A43C,0.117
23,A30G U62A,0.0629
24,A31C C66G,0.102

row,Variant,self-cleavage
1,A31C C66A,0.146
2,U33A C38G,0.128
3,U33A C38A,0.13
4,A31U U63C,0.247
5,A31C A44U,0.109
6,A31C A44G,0.174
7,A31G U70G,0.376
8,A31G U70C,0.751
9,A31C U53A,0.126
10,G32U C38U,0.0994
11,G32U C38G,0.125
12,A31G A35C,0.6
13,A31G G32U,0.121
14,A31G C48G,0.1
15,A31G C48U,0.257
16,G32A U55A,0.107
17,A30G U55C,0.0826
18,A31C A35U,0.181
19,A31C A35C,0.069
20,G32C U53C,0.155
21,A31U G32A,0.102
22,A31U G32C,0.165
23,G32A A35C,0.177
24,A30U A61G,0.0939

row,Variant,self-cleavage
1,G32A U62A,0.162
2,G32A U62C,0.128
3,U33A A47U,0.127
4,U33A A47G,0.0897
5,U33A C66G,0.101
6,A31C A71U,0.1
7,G32C A35G,0.146
8,G32A U52C,0.101
9,A31C U63C,0.23
10,A31C U63G,0.119
11,A30G U53A,0.0621
12,A30G U53C,0.288
13,G32C G34U,0.163
14,A30U C48U,0.197
15,G32C A59C,0.198
16,G32A U33G,0.137
17,A31U A44G,0.215
18,G32U A49C,0.0697
19,G32U A49G,0.128
20,G32U A35U,0.191
21,G32U A35G,0.0968
22,G32C C38G,0.0953
23,G32C C38U,0.181
24,A30G U33A,0.0512

row,Variant,self-cleavage
1,A30G U33G,0.0952
2,G32A A41C,0.145
3,G32A A41G,0.183
4,G32U A61U,0.109
5,A30U G51U,0.193
6,A30U G51C,0.164
7,A31G G34C,1.44
8,A31G G34U,1.54
9,G32C G51A,0.14
10,G32C G51C,0.0912
11,G32C C65U,0.0495
12,G32U C46A,0.272
13,G32U C46G,0.14
14,A31U A43U,0.0597
15,A31C C65A,0.0267
16,A31C C65U,0.0838
17,A31G C38A,0.157
18,A31G C66G,0.211
19,A31G C66A,0.127
20,A31U C38U,0.157
21,G32A C38A,0.115
22,A31U U60C,0.103
23,A31C U62A,0.12
24,G32U A71C,0.206

row,Variant,self-cleavage
1,G32U A71G,0.214
2,A31U U67A,0.1
3,A31U U67G,0.0559
4,A31U A47C,0.109
5,U33A U55G,0.0798
6,A31G G56A,0.0841
7,G32U U55A,0.0859
8,G32C C48A,0.112
9,G32C C48G,0.121
10,A30U G69C,0.0465
11,G32U U63A,0.172
12,A31C A64G,0.0732
13,G32C G57C,0.113
14,U33A C50G,0.211
15,A31C C38G,0.196
16,A31C C38A,0.141
17,U33A G57U,0.13
18,U33A U60A,0.0246
19,G32A A45U,0.143
20,G32A A45C,0.277
21,G32A G51C,0.113
22,G32A G51U,0.122
23,A31C G68C,0.135
24,A31C G68A,0.152

row,Variant,self-cleavage
1,A31C G68U,0.122
2,A30U A35G,0.217
3,G32A C46A,0.145
4,G32C A41C,0.0995
5,G32C A41U,0.101
6,A30U U33A,0.0677
7,A31C A41C,0.0332
8,A30U G57A,0.0986
9,A30U G57U,0.175
10,G32U A45U,0.3
11,G32U A45G,0.0481
12,G32U U53C,0.253
13,G32U U53G,0.103
14,A30U A41U,0.232
15,G32A C66U,0.177
16,G32U A39C,0.116
17,G32U A39G,0.0986
18,A31U C37A,0.0463
19,A30G U52G,0.186
20,A31U A39C,0.0658
21,A31U A39U,0.12
22,A31C U33A,0.241
23,A31U U62A,0.115
24,G32A A64G,0.142

row,Variant,self-cleavage
1,A31U U52G,0.117
2,A31U U52A,0.048
3,A31U U52C,0.116
4,A31G A41C,1.2
5,G32C U70C,0.234
6,A30U G34U,0.805
7,A30U G34C,0.42
8,A31U G56A,0.0543
9,A31U G56U,0.187
10,U33A A41G,0.0913
11,U33A A41C,0.0532
12,G32A G57A,0.0905
13,G32U U62G,0.182
14,A31U C46G,0.212
15,A31C U55A,0.0627
16,U33A U58C,0.0877
17,U33A G34U,0.134
18,A30U C66A,0.096
19,A30U C66G,0.165
20,G32A G34C,1.23
21,G32A A39C,0.0881
22,G32A A39G,0.107
23,A30U A47U,0.0724
24,G32A G56C,0.0365

row,Variant,self-cleavage
1,G32C U63A,0.208
2,G32C U63C,0.0888
3,G32C U63G,0.035
4,G32U C66U,0.194
5,A31U G68C,0.175
6,U33A A61C,0.127
7,G32A A71U,0.155
8,G32A A71C,0.15
9,A31C A59G,0.132
10,A31C A59C,0.103
11,G32U U58G,0.137
12,U33A A39C,0.105
13,G32C U60C,0.0463
14,A31U G51U,0.121
15,A30U A45C,0.0664
16,G32U G40U,0.152
17,G32U G40C,0.0975
18,G32U C48G,0.188
19,A31G G42C,0.278
20,A31U A64C,0.0924
21,A31C G34U,0.0576
22,A31C G34C,0.127
23,A30U U62G,0.108
24,A30U U62C,0.144

row,Variant,self-cleavage
1,A30U U62A,0.177
2,A31G G68A,0.189
3,A31G G68C,0.115
4,U33A A36G,0.202
5,A30U G32U,0.0889
6,A30U G32A,0.183
7,A31U U70C,0.0555
8,A31U U70G,0.27
9,G32A U58C,0.184
10,G32A U58G,0.16
11,G32A U58A,0.0567
12,G32A C48G,0.117
13,A31C A45C,0.0871
14,A31G U63G,0.135
15,U33A A49C,0.163
16,G32C C46G,0.0694
17,A30U A31U,0.149
18,A31C G42A,0.164
19,U33A A43U,0.115
20,U33A A43C,0.219
21,A30U U55G,0.106
22,A30U U55A,0.0256
23,A30U A44C,0.0664
24,A30U A44G,0.064

row,Variant,self-cleavage
1,A31U G40U,0.182
2,A31U G40C,0.154
3,G32C U52C,0.131
4,G32C C50G,0.14
5,G32C C50A,0.109
6,G32U A47U,0.121
7,G32U A47G,0.0761
8,A31C G51U,0.149
9,A30G G69C,0.0841
10,A30G G69A,0.12
11,A31C A36U,0.0851
12,A31G U62G,0.199
13,A31U U53C,0.133
14,G32A U53G,0.146
15,G32A U53C,0.243
16,G32U A43U,0.148
17,G32C A47U,0.0919
18,G32C A47G,0.0562
19,A31G C65G,0.17
20,A31G C65A,0.891
21,G32A U70A,0.139
22,A31G A71C,1.05
